Tests used:
[1] = tested on: rat aortic ring; assay: Rat aortic ring angiogenesis assay (Example 4.3); type: cell-based, Lewis rat; conditions: for % of Control: microvessel growth
Experimental: Four separate studies were carried out to determine the angiogenic effect of crystallin preparations. Each sample was assayed in triplicate. A positive control (VEGF) and a vehicle control containing PBS was also run in triplicate. […] Preliminary statistical significance was assessed with an independent Student t-test at α<0.05. Graphical representation of averages +/− standard errors were determined.
The first study investigated the angiogenic potential of bovine fractions prepared by gel filtration analysis as described in Example 3.2. As described in that Example, the alpha fraction contained αA and αB crystallin, the β H fraction contained all β crystallins, the β L1 fractions contained a sub-fraction of beta crystallins and a high content of βB2 crystallin and beta B3 crystallin and the beta L2 fraction contained only βB2 crystallin and βA3 crystallin.
The second study investigated the angiogenic potential of purified crystallin proteins. Briefly, βB3 crystallin was prepared by heating (97-99° C. for 3 minutes, supernatant collected by centrifugation) and was essentially homogenous. Alpha A crystallin and αB crystallin samples were prepared by ion exchange chromatography as described above and were also essentially homogenous. The Wound Heal 1-3 preparations were also tested in this study.
The third study investigated the angiogenic potential of ovine crystallin proteins compared to their bovine equivalents. Both bovine and ovine crystallin proteins were purified essentially to homogeneity by RP. HPLC using a C4 column, as described below in Example 5. Homogeneity was confirmed by SDS-PAGE. The effect of elastase I treatment of βB2 crystallin was also investigated by comparing the angiogenic potential of intact βB2 crystallin (i.e. undigested) with elastase I digested βB2 crystallin. Elastase I treatment releases the N-terminal and C-terminal extensions of the crystallin protein leaving a globular protein that is monomeric.
In the final study, ovine βB2 crystallin was tested alone or in combination with indoleamine 2,3-dioxygenase (IDO) and ovine alpha B crystallin was tested alone or in combination with tryptophan dioxygenase (TDO)
Briefly, in each study, a single Lewis rat was euthanised and its aorta transferred to a 15 mL Falcon tube containing 10 mL of MCBD-131 medium and stored on ice. After transferring the aorta to a 92×17 mm petri dish containing 10 mL of ice cold MCDB-131, the outer fatty tissue was removed under an Olympus SZ-60 Dissecting microscope. This was undertaken with fibre optic lamp illumination. The aorta was then cut into sequential rings approximately 2 mm in size. Connective tissue was removed with micro scissors and forceps from the outside of the individual rings. Clean rings were stored in a separate petri dish in sterile MCDB-131 medium. Rings were pre-incubated overnight at 37° C. in an atmosphere of 97% air/3% CO2.
To prepare gel sandwiches, 75 mg of fibrinogen was added to 25 mL MCDB-131 medium and shaken gently on a rocker roller for 5 minutes. 3 ml of MCDB-131/fibrinogen solution was added to a 15 mL Falcon tube, followed by 10 μL of thrombin and quickly mixed. A 0.4 mL volume of this fibrinogen-thrombin solution was added to each well on a 24 well plate, 6 wells at a time. Aortic rings were then placed on the setting gel, pushed gently into the gel and left for 45 minutes. These steps were then repeated so each ring was covered with 0.4 mL of gel. Gels were left to set at room temperature. […] The plate was then placed in incubator (37° C., 97% air/3% CO2).
Culture plate were examined daily for signs of infection (fungal growth or yellowing of media) in the wells using an inverted microscope. The growth of microvessels from their perimeters was also observed. Digital photographs of each well were taken seven days after plating using a Pixera PVC-100C digital camera mounted on an OLYMPUS CK-12 microscope and stored on a Macintosh Computer. […]

[2] = target: T1, elastase I (Sus scrofa, UniProt P00772); assay: Chaperone activity: protection of elastase I from heat denaturation; type: biochemical; conditions: boiling water bath for 30 seconds
T1 construct: purchased Worthington Biochemical Corporation 2280
Experimental: Bovine crystallin fractions were tested for ability to protect the proteases elastase I, trypsin and chymotrypsin from heat denaturation. Briefly, the proteases were heated in a boiling water bath for 30 seconds in the presence or absence of the crystallin fractions.

[3] = tested on: full thickness 12 mm wound; assay: Wound healing assay (Example 3.6); type: in vivo, male Lewis rats; conditions: for Wound areas: mg/wound: Wound heal 1 0.01, Wound heal 2 0.1, Wound heal 3 1.0, Aloe vera 20
Experimental: Thirty male Lewis rats were divided into 5 groups of 6 rats as outlined below in Table 7. Rats were age and weight matched. Rats were permitted rodent diet and water ad libitum throughout the study.
The animals were weighed two days before the start of the trial and weights grouped from lightest to heaviest. Animals were then randomly assigned to groups based on body weights, using 5×5 Latin squares so that group means were as similar as possible.
Approximately 30 minutes before wounding, each animal was given a subcutaneous injection of Temgesic at the base of the neck (0.075 mg/kg body weight). Each animal was anaesthetised using 3% halothane in oxygen. Once the pedal reflexes had been abolished, the animals were shaved from the base of the skull to the hind limb area using electric clippers. The skin on each rat was disinfected using 0.5% chlorhexidine in 70% ethanol. For each animal, the distance from the base of the skull to the top of the hip joint was measured and the wound position marked with a black felt tip pen, 6 cm below the base of the skull along the spinal axis.
Using asceptic techniques a full thickness incision was made at this position using a sterile 12 mm biopsy punch. Any bleeding was removed using cotton swabs. Care was taken that the punch was dry and that no debris (eg., skin, hair) entered the wounds. […] After photography of each wound using a Canon Digital EOS 20D camera with a F2.8 Macro lens, an aliquot of the sample was applied to the wounds on the rats in Groups A, B, D and E using a Gilson Microman CP 100 positive displacement pipette. The biopsy punch was wiped inside with a swab soaked in sterile saline to remove any tissue fluids and/or debris. The punch was then immersed in 70% ethanol before use on the next animal.
For applications and photographs after day 1 the animals were restrained without being anaesthetised.
(§1) Body weights were measured on days 1, 3, 5, 7, 9, 11, 13, 15, 17, 19, 21 and 23 and deviations from original body weights (on day 1) calculated for each animal. On the same days, photographs were taken using a Canon Digital Eos 20D with a F2.8 Macro lens. Photographs were downloaded and wound areas measured using NIH Image J 1.633u software (National Institutes of Health (NIH), Rockville Pike, Bethesda, Md., United States). A laser speckle image was also taken at the same time as each space photograph was taken. Animals were weighed every second day when the photographic record of wound closure rate was also made.
The redness and swelling of each wound were individually scored from visual observation. These were scored on a scale of 0-3 as follows:
Descriptive statistics were evaluated. […] Major analyses were performed on all data points collected. Preliminary analyses were undertaken on control wounds only using t-tests. Univariate ANOVAs were used to assess differences between treatment and controls and samples nested within treatments. A separate ANOVA assessed whether there was a dose response using the treatment samples only. Assumptions for normality were tested using q-q plots on studentized residuals and heterogeneity of variances were tested using Levene's tests. SPSS 11 for Mac OSX was used for assumption testing and statistical analysis.

[4] = Body weight during wound healing assay (Example 3.6); type: in vivo, male Lewis rats; conditions: PBS control returned by day 11
Experimental: as §1

[5] = summary of second and third study

T1 sequence (P00772 27-266): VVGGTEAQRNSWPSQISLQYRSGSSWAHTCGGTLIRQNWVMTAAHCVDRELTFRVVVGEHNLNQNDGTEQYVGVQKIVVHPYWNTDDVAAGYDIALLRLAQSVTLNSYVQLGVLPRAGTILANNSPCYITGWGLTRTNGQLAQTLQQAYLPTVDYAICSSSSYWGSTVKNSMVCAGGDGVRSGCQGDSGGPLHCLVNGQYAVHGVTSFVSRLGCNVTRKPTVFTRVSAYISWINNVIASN

B1: Bovine αB crystallin: bovine αB crystallin prepared by ion exchange chromatography, essentially homogenous (protein)
chain: MDIAIHHPWIRRPFFPFHSPSRLFDQFFGEHLLESDLFPASTSLSPFYLRPPSFLRAPSWIDTGLSEMRLEKDRFSVNLDVKHFSPEELKVKVLGDVIEVHGKHEERQDEHGFISREFHRKYRIPADVDPLAITSSLSSDGVLTVNGPRKQASGPERTIPITREEKPAVTAAPKK
% of Control ([1]; second study, 200 μg/mL): 85.21%
chaperone activity: protection of elastase I from heat denaturation (in words) [2]: able to protect elastase I from heat inactivation

B2: Wound Heal 1: bovine βB2 crystallin, fractionated at pH 5.3 on Sephacryl 300 HR; Group B of Example 3, 0.01 mg/wound (protein)
chain: ASDHQTQAGKPQPLNPKIIIFEQENFQGHSHELNGPCPNLKETGVEKAGSVLVQAGPWVGYEQANCKGEQFVFEKGEYPRWDSWTSSRRTDSLSSLRPIKVDSQEHKITLYENPNFTGKKMEVIDDDVPSFHAHGYQEKVSSVRVQSGTWVGYQYPGYRGLQYLLEKGDYKDSGDFGAPQPQVQSVRRIRDMQWHQRGAFHPSS
Wound areas ([3]; Day 1 (=100)): 100
Wound areas ([3]; Day 3): 86
Wound areas ([3]; Day 5): 75
Wound areas ([3]; Day 7): 69
Wound areas ([3]; Day 9): 54
Wound areas ([3]; Day 11): 32
Wound areas ([3]; Day 13): 18
Wound areas ([3]; Day 15): 13
Wound areas ([3]; Day 17): 8
Wound areas ([3]; Day 19): 4
Wound areas ([3]; Day 21): 1.7
Wound areas ([3]; Day 23): 1.4
mean wound area ([3]; day 5): 123 ± 14.7 mm²
wound area at day 5, statistical significance ([3]; day 5, p=0.045 (Wound Heal 1), p=0.008 (Wound Heal 2)): significantly smaller
healing rate compared to Control group (PBS), in words ([3]; rat, in vivo): slightly faster healing rate than the reference group over the first 7 days
% of Control ([1]; second study, 200 μg/mL): 94.52%
chaperone activity: protection of elastase I from heat denaturation (in words) [2]: not
day by which mean body weight had returned to the starting (pre-wounding) weight [4]: ≤ 14 days

B3: Bovine βB2 crystallin (non-elastase treated): intact bovine βB2 crystallin prepared by RP HPLC on C4 column (protein, UniProt P02522 2-205, looked up)
Beta-crystallin B2: B2 chain
angiogenic activity (in words) [1, 5]: not angiogenic
% of Control ([1]; third study, 100 μg/mL): 93.4%

B4: Tryptophan dioxygenase TDO: tryptophan hydrolyzing enzyme (protein, UniProt P48775 1-406, looked up)
Tryptophan 2,3-dioxygenase: MSGCPFLGNNFGYTFKKLPVEGSEEDKSQTGVNRASKGGLIYGNYLHLEKVLNAQELQSETKGNKIHDEHLFIITHQAYELWFKQILWELDSVREIFQNGHVRDERNMLKVVSRMHRVSVILKLLVQQFSILETMTALDFNDFREYLSPASGFQSLQFRLLENKIGVLQNMRVPYNRRHYRDNFKGEENELLLKSEQEKTLLELVEAWLERTPGLEPHGFNFWGKLEKNITRGLEEEFIRIQAKEESEEKEEQVAEFQKQKEVLLSLFDEKRHEHLLSKGERRLSYRALQGALMIYFYREEPRFQVPFQLLTSLMDIDSLMTKWRYNHVCMVHRMLGSKAGTGGSSGYHYLRSTVSDRYKVFVDLFNLSTYLIPRHWIPKMNPTIHKFLYTAEYCDSSYFSSDESD
angiogenic activity (in words) ([1]; forth study, 100 μg/mL): stimulatory
% of Control ([1]; forth study, 100 μg/mL): 106.2%

B5: Ovine βB2 crystallin: intact ovine βB2 crystallin prepared by RP HPLC on C4 column (protein)
chain: ASDHQTQAGKPQPLNPKIIIFEQENFQGHSHELNGPCPNLKETGVEKAGSVLVQAGPWVGYEQANCKGEQFVFEKGEYPRWDSWTSSRRTDSLSSLRPIKVDSQEHKITLYENPNFTGKKMEVIDDDVPSFHAHGYQEKVSSVRVQSGTWVGYQYPGYRGLQYLLEKGDYKDSGDFGAPQPQVQSVRRIRDMQWHQRGAFHPS
angiogenic activity (in words) [1, 5]: not angiogenic
% of Control ([1]; third study, 100 μg/mL): 103.5%

— patent publication US8404644B2, “Agents with angiogenic and wound healing activity” (Meat & Livestock Australia Limited, priority 2007, dated 2013)
